B1: LINE1-full (parent)
chain: UACGUAGGUGGUUUUCCCCUGAUAGUGCUAAGGGGGCCUGGAAGUUUGGACUGGGCAGAGCUCAACACAGCGUGGCAAAGUGGCUGUGGCUAGACUGCCUCUCUGGAUUCCUCGUCACUCAGCAGGGCAUCUCUGAGAGAAAUGCC

Variants of: B1
Test: self-cleavage, relative activity (ratio to wild type); higher = more cleavage; in vitro, sequencing; the parent is a self-cleaving ribozyme
In the case of U29A U81C, the self-cleavage is reported as 0.92. For C3U A78G, the self-cleavage was 0.37. Variant G10A G36C has a self-cleavage of 1.89. For C38A U109C, the self-cleavage was 1. A117G U119A gave a self-cleavage of 1.17. With C3A A77G the self-cleavage was 1.17. G33C U91C showed a self-cleavage of 0.41. Variant U1A U108C has a self-cleavage of 0.77. Variant C28G C128U has a self-cleavage of 1.8. Variant A24C A142C has a self-cleavage of 1.13. With A50U U73A the self-cleavage was 0.89. With U62C A121G the self-cleavage was 0.1. With U15C U39C the self-cleavage was 1.51. With U1C A30G the self-cleavage was 0.73. For A22G U85A, the self-cleavage was 0.12. Work on A65G U143A yielded a self-cleavage of 0.06. A92U G126A showed a self-cleavage of 0.41. In the case of U47A C146U, the self-cleavage is reported as 1.68. C120U gave a self-cleavage of 1.37. In the case of U26C A69U, the self-cleavage is reported as 0.11. Work on G70U G97A yielded a self-cleavage of 0.01. For U47C U81G, the self-cleavage was 1.13. Work on G11A A107G yielded a self-cleavage of 1.65. With U62G A67G the self-cleavage was 0.09. Work on U45A U87A yielded a self-cleavage of 0.09. Work on U45C C146U yielded a self-cleavage of 2.99. In the case of U46A C145U, the self-cleavage is reported as 1.52. With U29C A142U the self-cleavage was 0.86. In the case of U23A A129G, the self-cleavage is reported as 2.15. A31U C63G showed a self-cleavage of 0. With G34U U143G the self-cleavage was 1.01. In the case of U119A G122A, the self-cleavage is reported as 1.35. U9C A31U gave a self-cleavage of 1.2. Work on A124G A138U yielded a self-cleavage of 1.23. For G49A A67G, the self-cleavage was 0.56. Variant U52G U100A has a self-cleavage of 0.43. For U104C G127A, the self-cleavage was 1.47. U15G A50C gave a self-cleavage of 1.37. For U29A A65U, the self-cleavage was 0.23. With U9C C131U the self-cleavage was 1.6. U52A U91G showed a self-cleavage of 0.08. With G49A U100C the self-cleavage was 1.96. A43G G72U gave a self-cleavage of 1.32. C71U U115C gave a self-cleavage of 1.12. For U100A A124C, the self-cleavage was 1.28. In the case of U12C U26C, the self-cleavage is reported as 1.39. With U91G A141G the self-cleavage was 0.06. Work on U91C U132C yielded a self-cleavage of 0.83. In the case of G93A U102C, the self-cleavage is reported as 0.06. G89U A124G gave a self-cleavage of 0.16. For G75U A142U, the self-cleavage was 0.84. For U96C U109C, the self-cleavage was 0.08. In the case of C19A A78G, the self-cleavage is reported as 1.53. U85C U132G gave a self-cleavage of 0.28. U20A A79G gave a self-cleavage of 0.92. In the case of G35U A94G, the self-cleavage is reported as 0.19. With U112C U132C the self-cleavage was 1.28. With A67U U134C the self-cleavage was 0.16. For G8U U39A, the self-cleavage was 1.12. Work on U13C C17A yielded a self-cleavage of 1.4. In the case of G72A U87C, the self-cleavage is reported as 0.25. Work on U15C U100A yielded a self-cleavage of 0.62. With A94U A121G the self-cleavage was 0.52. A59G U132A showed a self-cleavage of 0.06. In the case of C19U U81A, the self-cleavage is reported as 1.05. C38U U96C gave a self-cleavage of 0.17. In the case of G35A U39C, the self-cleavage is reported as 0.53. For C113U A136G, the self-cleavage was 1.58. G25C U91C showed a self-cleavage of 0.97. With U9C A79U the self-cleavage was 1.66. Variant U39A U46C has a self-cleavage of 1.5. Work on A22G U102C yielded a self-cleavage of 1.04. In the case of U39C A59G, the self-cleavage is reported as 0.04. A30G A94U showed a self-cleavage of 0.64. For A42G U87C, the self-cleavage was 0.41. Work on U9A A64G yielded a self-cleavage of 0.26. In the case of U9G C146U, the self-cleavage is reported as 1.29. C98U U130C showed a self-cleavage of 0.5. In the case of U102C A138G, the self-cleavage is reported as 1.42. Work on A2G U96A yielded a self-cleavage of 0.22. Work on G72A U115C yielded a self-cleavage of 0.9. U5A U73A showed a self-cleavage of 2.19. For U5C G25A, the self-cleavage was 1.34. Variant A78C U108C has a self-cleavage of 2.16. Work on A78G U100A yielded a self-cleavage of 0.16. For U14A A138U, the self-cleavage was 1.07. U20A U130C gave a self-cleavage of 1.45. Variant U20A A24U has a self-cleavage of 1.41. In the case of U20G C37A, the self-cleavage is reported as 1.04. Variant U14A U62G has a self-cleavage of 0.53. In the case of U91A A92G, the self-cleavage is reported as 0.16. With U12C U73G the self-cleavage was 1.29. Work on U73A U96C yielded a self-cleavage of 0.1. G58U A141G showed a self-cleavage of 0.04. In the case of U1A U130C, the self-cleavage is reported as 1.46. A79C G89A gave a self-cleavage of 0.09. Variant A50U U119C has a self-cleavage of 1.47. U12C A42C gave a self-cleavage of 0.85. For U104A A129G, the self-cleavage was 1.27. Work on G10A U12G yielded a self-cleavage of 0.83. G40A U91C gave a self-cleavage of 0.21. For G27C A67C, the self-cleavage was 0.1. In the case of U115G A129U, the self-cleavage is reported as 1.34. In the case of U47A A92U, the self-cleavage is reported as 0.5. For C76U U96C, the self-cleavage was 0.13. Variant C16A U52C has a self-cleavage of 0.69. With C17U A59G the self-cleavage was 0.17. Variant A6U U20A has a self-cleavage of 1.21. Variant G11C has a self-cleavage of 1.42. With U45G U132A the self-cleavage was 0.86. U5A A69U showed a self-cleavage of 0.09. With G34A U45C the self-cleavage was 0.87. Variant U20C U39C has a self-cleavage of 1.28. Work on U5C U73C yielded a self-cleavage of 1.16. Variant U45C G114A has a self-cleavage of 1.48. U39C C63U showed a self-cleavage of 0.25. Work on A69U U112C yielded a self-cleavage of 0.06. U39A U108C showed a self-cleavage of 1.24. Variant A64U A141G has a self-cleavage of 0.32. For G33A A138G, the self-cleavage was 1.36. For U109C U143C, the self-cleavage was 1.29. For U5C A79G, the self-cleavage was 1.15. With A43G U132A the self-cleavage was 1.55. Variant C19A A138C has a self-cleavage of 1.07. A77U U87A showed a self-cleavage of 0.05. Variant A57U G144U has a self-cleavage of 0.3. Work on G21A U102A yielded a self-cleavage of 1.14. Variant U1A G97A has a self-cleavage of 0.38. G21A A94G gave a self-cleavage of 0.1. Variant C37A U47A has a self-cleavage of 1.12. Work on U96A U109C yielded a self-cleavage of 0.1. For G32A C84U, the self-cleavage was 0.21. G105U A140U gave a self-cleavage of 1.53. In the case of C84U A142G, the self-cleavage is reported as 0.12. For A117U U143A, the self-cleavage was 1.23. Variant A2G G32A has a self-cleavage of 0. With U23C A117G the self-cleavage was 1.27. Variant U23C A117U has a self-cleavage of 1.75. For U47A A67G, the self-cleavage was 0.38. Work on U62A A117G yielded a self-cleavage of 0.08. In the case of U81C U87A, the self-cleavage is reported as 0.1. C28U A117G showed a self-cleavage of 1.58. Variant A30U A129U has a self-cleavage of 1.38. In the case of U45C A138U, the self-cleavage is reported as 1.48. Work on A50G A79U yielded a self-cleavage of 1.09. With U46A A117G the self-cleavage was 1.78. G137A A138G gave a self-cleavage of 1.38. With G97C G106U the self-cleavage was 0.2. U9C A64C gave a self-cleavage of 0.35. With U73A U108G the self-cleavage was 0.44. With U1C U47A the self-cleavage was 0.6. A79G U119G showed a self-cleavage of 1.31. A65U U85G gave a self-cleavage of 0.1. With U102C C131A the self-cleavage was 1.48. For U85A A141G, the self-cleavage was 0.07. With U12A A42U the self-cleavage was 1.75. In the case of A31G G36A, the self-cleavage is reported as 0.99. In the case of A129C G135A, the self-cleavage is reported as 2.11. In the case of U45A A129G, the self-cleavage is reported as 1.26. In the case of U26G U143A, the self-cleavage is reported as 0.68. Variant G53C A64G has a self-cleavage of 0.22. Variant A94C U109A has a self-cleavage of 0.05. U47G A64G gave a self-cleavage of 0.23. In the case of A69G U87G, the self-cleavage is reported as 0.48. In the case of A69G G83U, the self-cleavage is reported as 0.15. In the case of C61U G114U, the self-cleavage is reported as 0.01. Work on U45C C116U yielded a self-cleavage of 1.36.

— the RNAGym collection of RNA variant scans (doi:10.7554/elife.90254)
